Five molecules from publication PMC11405395 (The EMBO Journal, 2024) can be followed below.

Common to all, as to settings: both partners purified
Test [1] addresses T1, GINS tetramer (Sld5, Psf1, Psf2, Psf3), S. cerevisiae (S. cerevisiae, UniProt Q03406 1-294; Q12488 1-208; P40359 1-213; Q12146 1-194).
T1 construct: Sld5, GINS subunit, S. cerevisiae; Psf1, GINS subunit, S. cerevisiae; Psf2, GINS subunit, S. cerevisiae; Psf3, GINS subunit, S. cerevisiae; pJL005 with TwinStrep-Psf3; also called tetrameric GINS complex; source: purified as previously described (Yeeles et al, 2015; Lewis et al, 2022); copies: + + +
T1 sequence (looked up) 1: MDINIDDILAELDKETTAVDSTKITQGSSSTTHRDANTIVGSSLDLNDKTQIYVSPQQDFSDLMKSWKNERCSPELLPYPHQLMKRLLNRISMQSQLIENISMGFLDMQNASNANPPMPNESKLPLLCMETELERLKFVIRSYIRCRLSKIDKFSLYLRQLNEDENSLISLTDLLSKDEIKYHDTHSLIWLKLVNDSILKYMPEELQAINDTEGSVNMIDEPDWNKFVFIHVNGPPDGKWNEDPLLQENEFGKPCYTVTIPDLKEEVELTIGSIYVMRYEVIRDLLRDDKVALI
T1 sequence (looked up) 2: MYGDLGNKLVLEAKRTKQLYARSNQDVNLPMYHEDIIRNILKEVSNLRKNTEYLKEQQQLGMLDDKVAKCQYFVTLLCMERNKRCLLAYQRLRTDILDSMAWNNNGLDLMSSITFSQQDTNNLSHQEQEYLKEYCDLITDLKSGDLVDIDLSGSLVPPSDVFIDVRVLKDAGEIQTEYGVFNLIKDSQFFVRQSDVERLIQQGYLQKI
T1 sequence (looked up) 3: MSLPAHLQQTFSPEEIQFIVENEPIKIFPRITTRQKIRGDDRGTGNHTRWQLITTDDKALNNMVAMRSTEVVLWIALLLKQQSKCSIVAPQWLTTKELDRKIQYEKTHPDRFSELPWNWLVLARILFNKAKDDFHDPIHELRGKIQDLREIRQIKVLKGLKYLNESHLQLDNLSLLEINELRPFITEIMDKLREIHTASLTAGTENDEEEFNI
T1 sequence (looked up) 4: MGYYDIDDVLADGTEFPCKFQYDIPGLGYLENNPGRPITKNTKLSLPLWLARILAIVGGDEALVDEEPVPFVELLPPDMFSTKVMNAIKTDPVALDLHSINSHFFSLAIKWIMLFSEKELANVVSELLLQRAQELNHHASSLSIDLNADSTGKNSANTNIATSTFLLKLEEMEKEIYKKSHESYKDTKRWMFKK
Description: co-IP; purified proteins mixed: 10 nM FLAG-Rrm3 with 15 nM GINS, 10 min on ice; anti-FLAG M2 magnetic beads; 25 mM Hepes-KOH pH 7.6, 200 mM KOAc, 0.02% NP-40-S, 0.1 mg/mL BSA, 1 mM DTT, 10 mM Mg(OAc)2; immunoblotting.

Test [2] concerns the target T2, DNA polymerase ε (Pol2, Dpb2, Dpb3, Dpb4), S. cerevisiae (S. cerevisiae, UniProt P21951 1-2222; P24482 1-689; P27344 1-201; Q04603 1-196).
T2 construct: Pol2, catalytic subunit of DNA polymerase ε, S. cerevisiae; Dpb2, second largest subunit of DNA polymerase ε, S. cerevisiae; Dpb3, subunit of DNA polymerase ε, S. cerevisiae; Dpb4, subunit of DNA polymerase ε, S. cerevisiae (DPB4-TEV-CBP); also called Polε; Pol ε; source: S. cerevisiae strain yAJ2, purified as previously described (Yeeles et al, 2015); copies: + + +
Description: co-IP; purified proteins mixed: 10 nM FLAG-Rrm3 with 15 nM Pol ε, 10 min on ice; anti-FLAG M2 magnetic beads; 25 mM Hepes-KOH pH 7.6, 400 mM KOAc, 0.02% NP-40-S, 0.1 mg/mL BSA, 1 mM DTT, 10 mM Mg(OAc)2; immunoblotting. Background: In western blotting, separated proteins are transferred to a membrane and probed.

The target in test [3] is T3, Homo sapiens CMG helicase (CDC45-MCM2-7-GINS) (human, UniProt P49736 1-904; P25205 1-808; P33991 1-863; P33992 1-734; Q14566 1-821; P33993 …).
T3 construct: MCM2, human, subunit of CMG; MCM3, human, subunit of CMG; MCM4, human, subunit of CMG; MCM5, human, subunit of CMG; MCM6, human, subunit of CMG; MCM7, human, subunit of CMG; CDC45, human, subunit of CMG; SLD5 (GINS4), human, GINS subunit of CMG (PrA-3TEV-HsSld5; eluted from IgG Sepharose with TEV protease); PSF1 (GINS1), human, GINS subunit of CMG; PSF2 (GINS2), human, GINS subunit of CMG; PSF3 …
Briefly: co-IP; purified proteins mixed: 10 nM RTEL1-FLAG with 15 nM hsCMG, 10 min on ice; anti-FLAG M2 magnetic beads; 25 mM Hepes-KOH pH 7.6, 100 mM KOAc, 0.02% NP-40-S, 0.1 mg/mL BSA, 1 mM DTT, 10 mM Mg(OAc)2; immunoblotting.

Substitutions are numbered along the chain they refer to. In names and notes the source's numbering stands.

T2 sequence (P21951 whole entry, chain 1 of 4): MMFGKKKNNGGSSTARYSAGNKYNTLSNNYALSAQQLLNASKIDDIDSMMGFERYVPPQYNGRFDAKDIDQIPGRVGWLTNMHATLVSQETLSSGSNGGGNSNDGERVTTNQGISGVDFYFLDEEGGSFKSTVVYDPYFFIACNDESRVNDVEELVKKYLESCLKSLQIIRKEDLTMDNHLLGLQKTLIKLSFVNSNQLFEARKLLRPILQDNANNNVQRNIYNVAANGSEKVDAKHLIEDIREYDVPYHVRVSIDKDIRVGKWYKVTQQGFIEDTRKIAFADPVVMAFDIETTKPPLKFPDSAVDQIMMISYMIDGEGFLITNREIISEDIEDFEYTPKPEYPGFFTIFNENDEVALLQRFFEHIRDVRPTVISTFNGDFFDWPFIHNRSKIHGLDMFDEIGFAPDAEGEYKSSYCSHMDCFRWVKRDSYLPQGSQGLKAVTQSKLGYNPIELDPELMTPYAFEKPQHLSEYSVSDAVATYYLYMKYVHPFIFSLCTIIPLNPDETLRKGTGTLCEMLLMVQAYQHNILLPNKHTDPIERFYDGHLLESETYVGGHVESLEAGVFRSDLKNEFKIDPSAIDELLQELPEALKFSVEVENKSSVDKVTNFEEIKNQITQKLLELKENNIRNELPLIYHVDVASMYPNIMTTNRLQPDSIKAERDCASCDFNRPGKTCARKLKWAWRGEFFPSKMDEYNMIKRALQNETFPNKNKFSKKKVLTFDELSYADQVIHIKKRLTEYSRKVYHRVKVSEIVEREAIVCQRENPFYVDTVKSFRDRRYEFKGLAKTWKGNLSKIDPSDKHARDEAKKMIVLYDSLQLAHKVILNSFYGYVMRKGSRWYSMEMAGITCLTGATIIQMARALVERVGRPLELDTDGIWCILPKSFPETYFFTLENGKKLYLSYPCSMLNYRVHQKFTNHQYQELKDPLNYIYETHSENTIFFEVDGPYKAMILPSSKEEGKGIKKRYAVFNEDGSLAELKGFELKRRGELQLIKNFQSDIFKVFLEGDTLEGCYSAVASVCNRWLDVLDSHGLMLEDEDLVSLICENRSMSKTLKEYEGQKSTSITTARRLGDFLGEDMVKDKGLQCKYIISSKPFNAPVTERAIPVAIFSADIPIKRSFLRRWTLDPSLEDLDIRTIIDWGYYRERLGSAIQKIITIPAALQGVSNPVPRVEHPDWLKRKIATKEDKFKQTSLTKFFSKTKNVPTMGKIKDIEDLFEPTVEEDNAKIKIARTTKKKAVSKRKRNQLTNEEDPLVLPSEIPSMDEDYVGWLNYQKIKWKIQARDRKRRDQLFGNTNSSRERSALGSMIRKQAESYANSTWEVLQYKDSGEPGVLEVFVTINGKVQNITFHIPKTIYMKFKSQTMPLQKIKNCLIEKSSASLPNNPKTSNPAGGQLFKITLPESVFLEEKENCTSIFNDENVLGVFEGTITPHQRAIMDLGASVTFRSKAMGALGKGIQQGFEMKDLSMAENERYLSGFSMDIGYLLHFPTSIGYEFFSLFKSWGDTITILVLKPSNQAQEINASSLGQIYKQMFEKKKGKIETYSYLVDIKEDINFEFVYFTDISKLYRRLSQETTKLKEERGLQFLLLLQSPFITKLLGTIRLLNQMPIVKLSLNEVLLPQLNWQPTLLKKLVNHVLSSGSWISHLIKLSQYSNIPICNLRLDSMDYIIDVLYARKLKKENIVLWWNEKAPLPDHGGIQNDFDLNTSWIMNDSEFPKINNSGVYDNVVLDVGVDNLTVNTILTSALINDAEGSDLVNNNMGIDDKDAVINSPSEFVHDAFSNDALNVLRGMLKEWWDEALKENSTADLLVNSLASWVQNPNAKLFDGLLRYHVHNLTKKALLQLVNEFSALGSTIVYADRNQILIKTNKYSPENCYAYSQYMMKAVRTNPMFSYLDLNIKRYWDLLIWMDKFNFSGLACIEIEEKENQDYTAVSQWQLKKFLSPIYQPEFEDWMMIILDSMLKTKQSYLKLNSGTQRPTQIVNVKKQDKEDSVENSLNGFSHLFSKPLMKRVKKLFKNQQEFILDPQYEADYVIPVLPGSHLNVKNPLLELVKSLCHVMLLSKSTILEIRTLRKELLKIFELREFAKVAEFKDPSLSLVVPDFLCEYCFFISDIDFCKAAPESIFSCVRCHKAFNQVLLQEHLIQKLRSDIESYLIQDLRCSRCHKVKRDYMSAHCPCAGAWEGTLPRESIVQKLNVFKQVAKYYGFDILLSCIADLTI
T2 sequence (P24482 whole entry, chain 2 of 4): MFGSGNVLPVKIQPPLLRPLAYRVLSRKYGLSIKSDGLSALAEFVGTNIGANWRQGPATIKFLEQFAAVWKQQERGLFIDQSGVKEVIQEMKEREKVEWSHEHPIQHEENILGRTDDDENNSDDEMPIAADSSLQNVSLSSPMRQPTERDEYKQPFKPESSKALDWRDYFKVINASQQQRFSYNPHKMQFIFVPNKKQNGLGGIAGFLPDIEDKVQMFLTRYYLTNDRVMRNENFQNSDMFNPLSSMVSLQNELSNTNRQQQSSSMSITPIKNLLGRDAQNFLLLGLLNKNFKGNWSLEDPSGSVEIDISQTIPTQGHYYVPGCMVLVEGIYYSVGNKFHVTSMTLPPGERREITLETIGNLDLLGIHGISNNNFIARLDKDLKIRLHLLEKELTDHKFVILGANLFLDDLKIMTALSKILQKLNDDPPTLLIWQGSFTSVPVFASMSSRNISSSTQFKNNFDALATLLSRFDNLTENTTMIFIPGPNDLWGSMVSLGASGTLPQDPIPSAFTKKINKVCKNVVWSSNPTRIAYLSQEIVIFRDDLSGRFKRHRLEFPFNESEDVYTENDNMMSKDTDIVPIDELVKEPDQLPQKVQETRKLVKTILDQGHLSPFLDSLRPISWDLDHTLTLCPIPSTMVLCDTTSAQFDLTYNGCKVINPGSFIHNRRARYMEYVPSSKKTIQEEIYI
T2 sequence (P27344 whole entry, chain 3 of 4): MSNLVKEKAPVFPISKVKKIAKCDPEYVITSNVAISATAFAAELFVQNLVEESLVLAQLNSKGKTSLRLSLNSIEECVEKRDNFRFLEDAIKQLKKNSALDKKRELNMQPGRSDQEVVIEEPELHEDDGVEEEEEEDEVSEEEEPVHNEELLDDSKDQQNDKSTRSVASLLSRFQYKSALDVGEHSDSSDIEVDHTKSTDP
T2 sequence (Q04603 whole entry, chain 4 of 4): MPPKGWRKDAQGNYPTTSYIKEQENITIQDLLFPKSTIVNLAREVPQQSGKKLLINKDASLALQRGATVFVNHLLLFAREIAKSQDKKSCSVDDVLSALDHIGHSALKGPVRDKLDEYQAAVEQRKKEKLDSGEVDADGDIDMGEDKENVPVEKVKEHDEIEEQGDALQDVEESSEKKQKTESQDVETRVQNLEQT

B1: Rrm3Δ86-110 (enzyme, S. cerevisiae, UniProt P38766 1-723, looked up)
chain: MFRSHASGNKKQWSKRSSNGSTPAASASGSHAYRQQTLSSFFMGCGKKSAAASKNSTTIIDLESGDEGNRNITAPPRPRLIRNNSVPRLNSYKKSSRSLSMTSSLHKTASASTTQKTYHFDEDETLREVTSVKSNSRQLSFTSTINIEDSSMKLSTDSERPAKRSKPSMEFQGLKLTVPKKIKPLLRKTVSNMDSMNHRSASSPVVLTMEQERVVNLIVKKRTNVFYTGSAGTGKSVILQTIIRQLSSLYGKESIAITASTGLAAVTIGGSTLHKWSGIGIGNKTIDQLVKKIQSQKDLLAAWRYTKVLIIDEISMVDGNLLDKLEQIARRIRKNDDPFGGIQLVLTGDFFQLPPVAKKDEHNVVKFCFESEMWKRCIQKTILLTKVFRQQDNKLIDILNAIRYGELTVDIAKTIRNLNRDIDYADGIAPTELYATRREVELSNVKKLQSLPGDLYEFKAVDNAPERYQAILDSSLMVEKVVALKEDAQVMMLKNKPDVELVNGSLGKVLFFVTESLVVKMKEIYKIVDDEVVMDMRLVSRVIGNPLLKESKEFRQDLNARPLARLERLKILINYAVKISPHKEKFPYVRWTVGKNKYIHELMVPERFPIDIPRENVGLERTQIPLMLCWALSIHKAQGQTIQRLKVDLRRIFEAGQVYVALSRAVTMDTLQVLNFDPGKIRTNERVKDFYKRLETLK
notes: Plasmid pOO14; also called 3FLAG-TEV RRM3-∆86-110; source: S. cerevisiae strain yOO7, purified (anti-FLAG M2 resin, HiTrap heparin); not shown: 3FLAG, N-terminal, kept
For B1, the binding result in test [1] was “binds”.

B2: Rrm3Δ111-130 (enzyme, S. cerevisiae, UniProt P38766 1-723, looked up)
chain: MFRSHASGNKKQWSKRSSNGSTPAASASGSHAYRQQTLSSFFMGCGKKSAAASKNSTTIIDLESGDEGNRNITAPPRPRLIRNNSSSLFSQSQGSFGDDDPDAEFKKLVDHKTASASTTQKTYHFDEDETLREVTSVKSNSRQLSFTSTINIEDSSMKLSTDSERPAKRSKPSMEFQGLKLTVPKKIKPLLRKTVSNMDSMNHRSASSPVVLTMEQERVVNLIVKKRTNVFYTGSAGTGKSVILQTIIRQLSSLYGKESIAITASTGLAAVTIGGSTLHKWSGIGIGNKTIDQLVKKIQSQKDLLAAWRYTKVLIIDEISMVDGNLLDKLEQIARRIRKNDDPFGGIQLVLTGDFFQLPPVAKKDEHNVVKFCFESEMWKRCIQKTILLTKVFRQQDNKLIDILNAIRYGELTVDIAKTIRNLNRDIDYADGIAPTELYATRREVELSNVKKLQSLPGDLYEFKAVDNAPERYQAILDSSLMVEKVVALKEDAQVMMLKNKPDVELVNGSLGKVLFFVTESLVVKMKEIYKIVDDEVVMDMRLVSRVIGNPLLKESKEFRQDLNARPLARLERLKILINYAVKISPHKEKFPYVRWTVGKNKYIHELMVPERFPIDIPRENVGLERTQIPLMLCWALSIHKAQGQTIQRLKVDLRRIFEAGQVYVALSRAVTMDTLQVLNFDPGKIRTNERVKDFYKRLETLK
notes: Plasmid pOO10; source: S. cerevisiae strain yOO5, purified (anti-FLAG M2 resin, HiTrap heparin); not shown: 3FLAG, N-terminal, kept
For B2, in test [2], the binding result is “binds”.

B3: Rrm3-6A (Rrm3 F89A, Q93A, F96A, D99A, E104A, L108A) (enzyme, S. cerevisiae, UniProt P38766 1-723, looked up)
chain: MFRSHASGNKKQWSKRSSNGSTPAASASGSHAYRQQTLSSFFMGCGKKSAAASKNSTTIIDLESGDEGNRNITAPPRPRLIRNNSSSLASQSAGSAGDADPDAAFKKAVDVPRLNSYKKSSRSLSMTSSLHKTASASTTQKTYHFDEDETLREVTSVKSNSRQLSFTSTINIEDSSMKLSTDSERPAKRSKPSMEFQGLKLTVPKKIKPLLRKTVSNMDSMNHRSASSPVVLTMEQERVVNLIVKKRTNVFYTGSAGTGKSVILQTIIRQLSSLYGKESIAITASTGLAAVTIGGSTLHKWSGIGIGNKTIDQLVKKIQSQKDLLAAWRYTKVLIIDEISMVDGNLLDKLEQIARRIRKNDDPFGGIQLVLTGDFFQLPPVAKKDEHNVVKFCFESEMWKRCIQKTILLTKVFRQQDNKLIDILNAIRYGELTVDIAKTIRNLNRDIDYADGIAPTELYATRREVELSNVKKLQSLPGDLYEFKAVDNAPERYQAILDSSLMVEKVVALKEDAQVMMLKNKPDVELVNGSLGKVLFFVTESLVVKMKEIYKIVDDEVVMDMRLVSRVIGNPLLKESKEFRQDLNARPLARLERLKILINYAVKISPHKEKFPYVRWTVGKNKYIHELMVPERFPIDIPRENVGLERTQIPLMLCWALSIHKAQGQTIQRLKVDLRRIFEAGQVYVALSRAVTMDTLQVLNFDPGKIRTNERVKDFYKRLETLK
notes: Plasmid pOO16; also called 3FLAG-TEV-RRM3-6A; source: S. cerevisiae strain yOO8, purified (anti-FLAG M2 resin, HiTrap heparin); not shown: 3FLAG, N-terminal, kept
Regarding B3, the binding result in test [1] is given as “binds”.

B4: Rrm3-CR (Rrm3 F89D, Q93A, F96K, D99K, E104K) (enzyme, S. cerevisiae, UniProt P38766 1-723, looked up)
chain: B3 chain with A89D, A96K, A99K, A104K, A108L
notes: Plasmid pOO15; also called 3FLAG-TEV-RRM3-CR; source: S. cerevisiae strain yOO9, purified (anti-FLAG M2 resin, HiTrap heparin); not shown: 3FLAG, N-terminal, kept
For B4, the binding result in test [1] is recorded as “binds”.

B5: Homo sapiens RTEL1 (wild-type, FLAG-tagged) (enzyme, human, UniProt Q9NZ71-1 1-1219, looked up)
chain: MPKIVLNGVTVDFPFQPYKCQQEYMTKVLECLQQKVNGILESPTGTGKTLCLLCTTLAWREHLRDGISARKIAERAQGELFPDRALSSWGNAAAAAGDPIACYTDIPKIIYASRTHSQLTQVINELRNTSYRPKVCVLGSREQLCIHPEVKKQESNHLQIHLCRKKVASRSCHFYNNVEEKSLEQELASPILDIEDLVKSGSKHRVCPYYLSRNLKQQADIIFMPYNYLLDAKSRRAHNIDLKGTVVIFDEAHNVEKMCEESASFDLTPHDLASGLDVIDQVLEEQTKAAQQGEPHPEFSADSPSPGLNMELEDIAKLKMILLRLEGAIDAVELPGDDSGVTKPGSYIFELFAEAQITFQTKGCILDSLDQIIQHLAGRAGVFTNTAGLQKLADIIQIVFSVDPSEGSPGSPAGLGALQSYKVHIHPDAGHRRTAQRSDAWSTTAARKRGKVLSYWCFSPGHSMHELVRQGVRSLILTSGTLAPVSSFALEMQIPFPVCLENPHIIDKHQIWVGVVPRGPDGAQLSSAFDRRFSEECLSSLGKALGNIARVVPYGLLIFFPSYPVMEKSLEFWRARDLARKMEALKPLFVEPRSKGSFSETISAYYARVAAPGSTGATFLAVCRGKASEGLDFSDTNGRGVIVTGLPYPPRMDPRVVLKMQFLDEMKGQGGAGGQFLSGQEWYRQQASRAVNQAIGRVIRHRQDYGAVFLCDHRFAFADARAQLPSWVRPHVRVYDNFGHVIRDVAQFFRVAERTMPAPAPRATAPSVRGEDAVSEAKSPGPFFSTRKAKSLDLHVPSLKQRSSGSPAAGDPESSLCVEYEQEPVPARQRPRGLLAALEHSEQRAGSPGEEQAHSCSTLSLLSEKRPAEEPRGGRKKIRLVSHPEEPVAGAQTDRAKLFMVAVKQELSQANFATFTQALQDYKGSDDFAALAACLGPLFAEDPKKHNLLQGFYQFVRPHHKQQFEEVCIQLTGRGCGYRPEHSIPRRQRAQPVLDPTGRTAPDPKLTVSTAAAQQLDPQEHLNQGRPHLSPRPPPTGDPGSQPQWGSGVPRAGKQGQHAVSAYLADARRALGSAGCSQLLAALTAYKQDDDLDKVLAVLAALTTAKPEDFPLLHRFSMFVRPHHKQRFSQTCTDLTGRPYPGMEPPGPQEERLAVPPVLTHRAPQPGPSRSEKTGKTQSKISSFLRQRPAGTVGAGGEDAGPSQSSGPPHGPAASEWGL
notes: RTEL1, human; the models and residue numbers are of isoform 1 (NP_057518.1), printed to residue 1219; Plasmid pTD195; The isoform is printed for the AlphaFold models; the deletion mutants use the same numbering; also called hsRTEL1; RTEL1-2FLAG; source: S. cerevisiae strain yOO1, purified (anti-FLAG M2 resin, HiLoad Superdex 200); not shown: 2XFLAG, C-terminal, kept
For B5, in test [3], the binding result is “binds”.
